In patent US20190025332A1 (Novo Nordisk, published 2019):

B1: wild type human MIC-1 (ligand)
chain: ARNGDHCPLGPGRCCRLHTVRASLEDLGWADWVLSPREVQVTMCIGACPSQFRAANMHAQIKTSLHRLKPDTVPAPCCVPASYNPMVLIQKTDTGVSLQTYDDLLAKDCHCI
notes: also called wtMIC-1; hMIC-1
B2: hGFRAL(ECR)-His (receptor, not shown: small tags and cut ends)
chain: SQTNNCTYLREQCLRDANGCKHAWRVMEDACNDSDPGDPCKMRNSSYCNLSIQYLVESNFQFKECLCTDDFYCTVNKLLGKKCINKSDNVKEDKFKWNLTTRSHHGFKGMWSCLEVAEACVGDVVCNAQLASYLKACSANGNPCDLKQCQAAIRFFYQNIPFNIAQMLAFCDCAQSDIPCQQSKEALHSKTCAVNMVPPPTCLSVIRSCQNDELCRRHYRTFQSKCWQRVTRKCHEDENCISTLSKQDLTCSGSDDCKAAYIDILGTVLQVQCTCRTITQSEESLCKIFQHMLHRKSCFNYPTLSNVKGMALYTRKHANKITLTGFHSPFNGE
B3: complex of wtMIC-1 and hGFRAL(ECR)-His (other)
chain 1: B1 chain
chain 2: B2 chain
notes: Prepared by pre-incubating wtMIC-1 with hGFRAL(ECR)-His; also called wtMIC-1 + hGFRAL(ECR)-His; complex of MIC-1 and hGFRAL; not shown: His tag, not described
B4: hGFRAL_C2_Fab_HPC4 (receptor)
chain: CLEVAEACVGDVVCNAQLASYLKACSANGNPCDLKQCQAAIRFFYQNIPFNIAQMLAFCDCAQSDIPCQQSKEALHSKTCAVNMVPPPTGGGGSGGGGSDVVMTQTPLSLPVSLGDQASISCRSSQSLLHSNGNTYLHWYLQKPGQSPKLLIYKVSNRFSGVPDRFSGSGSGTDFTLKISRVEAEDLGVYFCSQSTHVPWTFGGGTKLEIKRADAAPTVSIFPPSSEQLTSGGASVVCFLNNFYPKDINVKWKIDGSERQNGVLNSWTDQDSKDSTYSMSSTLTLTKDEYERHNSYTCEATHKTSTSPIVKSFNRNEC
heavy: EVQIQESGPSLVKPSQTLSLTCSVSGDSITSGYWNWIRKFPGHKIEYMGTISYSGDTYYNPSLKSRISITRDTSKNQYYLHLNSVTTEDTATYYCARYGSYVFDYWGQGTTLTVSSAKTTPPSVYPLAPGSAAQTNSMVTLGCLVKGYFPEPVTVTWNSGSLSSGVHTFPAVLQSDLYTLSSSVTVPSSTWPSETVTCNVAHPASSTKVDKKIVPRDCGGGGSEDQVDPRLIDGK
notes: C2 = amino acid 131-219 of UniProt Q6UXV0
B5: hGFRAL_C1C2_Fab_HPC4 (receptor)
chain: QTNNCTYLREQCLRDANGCKHAWRVMEDACNDSDPGDPCKMRNSSYCNLSIQYLVESNFQFKECLCTDDFYCTVNKLLGKKCINKSDNVKEDKFKWNLTTRSHHGFKGMWSCLEVAEACVGDVVCNAQLASYLKACSANGNPCDLKQCQAAIRFFYQNIPFNIAQMLAFCDCAQSDIPCQQSKEALHSKTCAVNMVPPPTGGGGSGGGGSDVVMTQTPLSLPVSLGDQASISCRSSQSLLHSNGNTYLHWYLQKPGQSPKLLIYKVSNRFSGVPDRFSGSGSGTDFTLKISRVEAEDLGVYFCSQSTHVPWTFGGGTKLEIKRADAAPTVSIFPPSSEQLTSGGASVVCFLNNFYPKDINVKWKIDGSERQNGVLNSWTDQDSKDSTYSMSSTLTLTKDEYERHNSYTCEATHKTSTSPIVKSFNRNEC
heavy: B4 heavy
B6: hGFRAL_C2C3_Fab_HPC4 (receptor)
chain: CLEVAEACVGDVVCNAQLASYLKACSANGNPCDLKQCQAAIRFFYQNIPFNIAQMLAFCDCAQSDIPCQQSKEALHSKTCAVNMVPPPTCLSVIRSCQNDELCRRHYRTFQSKCWQRVTRKCHEDENCISTLSKQDLTCSGSDDCKAAYIDILGTVLQVQCTCRTITQSEESLCKIFQHMLHRKSCFNYPTLSNVKGMALYTRKHANKITLTGFHSPFNGEGGGGSGGGGSDVVMTQTPLSLPVSLGDQASISCRSSQSLLHSNGNTYLHWYLQKPGQSPKLLIYKVSNRFSGVPDRFSGSGSGTDFTLKISRVEAEDLGVYFCSQSTHVPWTFGGGTKLEIKRADAAPTVSIFPPSSEQLTSGGASVVCFLNNFYPKDINVKWKIDGSERQNGVLNSWTDQDSKDSTYSMSSTLTLTKDEYERHNSYTCEATHKTSTSPIVKSFNRNEC
heavy: B4 heavy

Assays:
[1] = target: T1, hRET(ECR)-hIgG1.1_Fc (human); test: SPR; analyte 0 nM over immobilised hRet(ECR)-Fc
T1 construct: also called hRET(ECR)-Fc; hRet(ECR)-Fc
Procedure: (§1) hRet and complex of hGFRAL and MIC-1 interactions were assessed by SPR-based binding assay. A Biacore® 4000 (GE Healthcare, Piscataway, N.J., USA) instrument was used. The assays were performed at 25° C. at flow rates of 30 μL/minute in 1× HBS-P running buffer (BR-1006-71, GE Healthcare, Piscataway, N.J., USA). hRet(ECR)-Fc was immobilized through Fc as ligand on the chip. VISTA-Fc was immobilized as negative control ligand. The complex of MIC-1 and hGFRAL was prepared by pre-incubating wtMIC-1 with hGFRAL(ECR)-His. wtMIC-1, hGFRAL(ECR)-His, complex of wtMIC-1 and Ctrl-His, and complex of wtMIC-1 and hGFRAL(ECR)-His at various concentration were run as flow-through analyte.
(§2) Thus, it can be concluded that that hRet binds to hGFRAL in the presence of MIC-1; and Ret, MIC-1 and GFRAL forms a ternary complex.

[2] = target: T1, hRET(ECR)-hIgG1.1_Fc; test: SPR; analyte 333 nM over immobilised hRet(ECR)-Fc
Procedure: as §1, §2

[3] = target: T2, VISTA-Fc; test: SPR; analyte 333 nM over immobilised VISTA-Fc (Ctrl-Fc)
T2 construct: Negative control ligand immobilised on the chip; also called Ctrl-Fc
Procedure: as §1, §2

[4] = target: T3, full length hGFRAL and full length hRET51 co-expressed on cells (human, UniProt Q6UXV0 19-394; P07949 29-1114); test: binding to BHK21-hGFRAL-IRES-hRET stable cells, median fluorescence intensity
T3 construct: Two receptors on the same cells (PC12, HEK293 or BHK21); written as one target since the read-outs are of cells that carry both; also called hGFRAL/hRET51 co-transfected; hGFRAL(FL) and hRET51(FL)

[5] = target: T2, VISTA-Fc; test: SPR; analyte 1000 nM over immobilised VISTA-Fc (Ctrl-Fc)
Procedure: as §1, §2

[6] = target: T2, VISTA-Fc; test: SPR; analyte 0 nM over immobilised VISTA-Fc (Ctrl-Fc)
Procedure: as §1, §2

[7] = target: T1, hRET(ECR)-hIgG1.1_Fc; test: SPR; analyte 12 nM over immobilised hRet(ECR)-Fc
Procedure: as §1, §2

[8] = target: T1, hRET(ECR)-hIgG1.1_Fc; test: SPR; analyte 1000 nM over immobilised hRet(ECR)-Fc
Procedure: as §1, §2

[9] = target: T1, hRET(ECR)-hIgG1.1_Fc; test: SPR; analyte 37 nM over immobilised hRet(ECR)-Fc
Procedure: as §1, §2

[10] = target: T3, full length hGFRAL and full length …; test: cell-based or functional assay
[11] = target: full length hGFRAL and full length hRET43 co-expressed on HEK293 cells (human, UniProt Q6UXV0 19-394; P07949 29-1062); test: cell-based or functional assay
[12] = target: full length hGFRAL and full length hRET9 co-expressed on HEK293 cells (human, UniProt Q6UXV0 19-394; P07949 29-1063); test: cell-based or functional assay
[13] = target: T2, VISTA-Fc; test: SPR; analyte 12 nM over immobilised VISTA-Fc (Ctrl-Fc)
Procedure: as §1

[14] = target: T1, hRET(ECR)-hIgG1.1_Fc; test: SPR; analyte 111 nM over immobilised hRet(ECR)-Fc
Procedure: as §1, §2

[15] = target: T2, VISTA-Fc; test: SPR; analyte 37 nM over immobilised VISTA-Fc (Ctrl-Fc)
Procedure: as §1, §2

[16] = target: T3, full length hGFRAL and full length …; test: cell-based or functional assay; remark: listed apart in the source
[17] = target: T2, VISTA-Fc; test: SPR; analyte 111 nM over immobilised VISTA-Fc (Ctrl-Fc)
Procedure: as §1, §2

[18] = target: B1; test: SPR; GFRAL fragment as analyte over immobilised wtMIC-1; relative to hGFRAL(ECR) set as 100%
Procedure: MIC-1 interactions with soluble GFRAL fragments were assessed by SPR-based binding assay. A Biacore® 4000 (GE Healthcare, Piscataway, N.J., USA) instrument was used for SPR-based binding assay. The assays were performed at 25° C. at flow rates of 30 μL/minute in 1× HBS-P running buffer (BR-1006-71, GE Healthcare, Piscataway, N.J., USA). Purified GFRAL fragments at various concentrations were run as flow-through analyte and wtMIC-1 was immobilized as ligand. Please see FIG. 6 and Table 5.

Chain of full length hGFRAL and full length hRET9 co-expressed on HEK293 cells (P07949 other isoform, or with tags, fused parts or gaps limits assumed): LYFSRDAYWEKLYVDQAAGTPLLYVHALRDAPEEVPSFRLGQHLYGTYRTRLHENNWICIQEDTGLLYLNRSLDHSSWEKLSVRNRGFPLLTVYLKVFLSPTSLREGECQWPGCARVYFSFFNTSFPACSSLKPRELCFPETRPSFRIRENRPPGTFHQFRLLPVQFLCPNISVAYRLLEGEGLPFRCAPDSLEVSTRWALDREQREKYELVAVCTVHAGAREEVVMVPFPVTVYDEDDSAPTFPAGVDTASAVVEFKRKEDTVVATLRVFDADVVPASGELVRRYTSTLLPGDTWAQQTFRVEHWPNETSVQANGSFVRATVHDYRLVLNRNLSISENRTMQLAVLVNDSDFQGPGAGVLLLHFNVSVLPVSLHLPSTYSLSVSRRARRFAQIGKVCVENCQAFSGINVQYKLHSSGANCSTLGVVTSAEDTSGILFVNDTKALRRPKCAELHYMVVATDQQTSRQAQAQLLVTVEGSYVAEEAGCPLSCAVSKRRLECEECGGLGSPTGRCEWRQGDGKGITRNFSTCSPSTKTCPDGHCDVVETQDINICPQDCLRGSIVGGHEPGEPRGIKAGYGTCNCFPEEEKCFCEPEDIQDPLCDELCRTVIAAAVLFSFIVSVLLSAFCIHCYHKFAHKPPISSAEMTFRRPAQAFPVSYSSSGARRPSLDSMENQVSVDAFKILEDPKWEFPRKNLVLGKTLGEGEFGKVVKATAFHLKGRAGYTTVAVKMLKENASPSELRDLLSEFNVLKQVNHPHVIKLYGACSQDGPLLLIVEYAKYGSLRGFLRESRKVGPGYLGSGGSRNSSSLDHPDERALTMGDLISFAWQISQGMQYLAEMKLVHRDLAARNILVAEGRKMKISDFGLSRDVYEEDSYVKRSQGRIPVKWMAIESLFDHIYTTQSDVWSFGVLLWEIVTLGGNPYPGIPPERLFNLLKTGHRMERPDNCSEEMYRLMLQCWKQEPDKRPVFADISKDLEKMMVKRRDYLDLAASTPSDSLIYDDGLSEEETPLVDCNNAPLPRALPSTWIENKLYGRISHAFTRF
T3 sequence (P07949 29-1114, one chain of several): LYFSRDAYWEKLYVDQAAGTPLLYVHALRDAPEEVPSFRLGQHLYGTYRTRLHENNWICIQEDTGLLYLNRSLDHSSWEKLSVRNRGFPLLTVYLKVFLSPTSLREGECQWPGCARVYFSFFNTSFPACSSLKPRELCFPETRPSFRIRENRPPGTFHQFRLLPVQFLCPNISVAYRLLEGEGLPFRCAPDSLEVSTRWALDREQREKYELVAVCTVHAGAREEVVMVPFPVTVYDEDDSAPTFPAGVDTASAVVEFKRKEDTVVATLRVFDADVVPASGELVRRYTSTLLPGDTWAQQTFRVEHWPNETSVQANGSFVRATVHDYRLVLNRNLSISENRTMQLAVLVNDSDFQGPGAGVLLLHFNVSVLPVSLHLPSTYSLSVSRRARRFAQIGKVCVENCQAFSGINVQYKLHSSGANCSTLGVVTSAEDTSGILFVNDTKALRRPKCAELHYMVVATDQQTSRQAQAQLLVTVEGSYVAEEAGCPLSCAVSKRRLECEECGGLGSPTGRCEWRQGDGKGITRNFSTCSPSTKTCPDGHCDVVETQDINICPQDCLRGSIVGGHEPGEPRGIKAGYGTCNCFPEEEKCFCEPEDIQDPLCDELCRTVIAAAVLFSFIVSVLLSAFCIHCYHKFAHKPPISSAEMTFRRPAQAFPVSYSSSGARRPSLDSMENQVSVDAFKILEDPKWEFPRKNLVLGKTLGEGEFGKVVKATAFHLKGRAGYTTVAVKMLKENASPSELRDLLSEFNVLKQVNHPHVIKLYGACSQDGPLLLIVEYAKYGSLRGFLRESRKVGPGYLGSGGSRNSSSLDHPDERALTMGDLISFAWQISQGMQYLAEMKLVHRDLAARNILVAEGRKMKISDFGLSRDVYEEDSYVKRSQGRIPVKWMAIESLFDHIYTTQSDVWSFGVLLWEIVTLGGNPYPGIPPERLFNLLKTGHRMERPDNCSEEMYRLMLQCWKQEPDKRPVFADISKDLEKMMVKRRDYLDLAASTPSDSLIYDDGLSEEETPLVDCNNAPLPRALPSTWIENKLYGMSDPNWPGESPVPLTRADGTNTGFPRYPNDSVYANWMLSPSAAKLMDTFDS
Chain of full length hGFRAL and full length hRET43 co-expressed on HEK293 cells (P07949 other isoform, or with tags, fused parts or gaps limits assumed): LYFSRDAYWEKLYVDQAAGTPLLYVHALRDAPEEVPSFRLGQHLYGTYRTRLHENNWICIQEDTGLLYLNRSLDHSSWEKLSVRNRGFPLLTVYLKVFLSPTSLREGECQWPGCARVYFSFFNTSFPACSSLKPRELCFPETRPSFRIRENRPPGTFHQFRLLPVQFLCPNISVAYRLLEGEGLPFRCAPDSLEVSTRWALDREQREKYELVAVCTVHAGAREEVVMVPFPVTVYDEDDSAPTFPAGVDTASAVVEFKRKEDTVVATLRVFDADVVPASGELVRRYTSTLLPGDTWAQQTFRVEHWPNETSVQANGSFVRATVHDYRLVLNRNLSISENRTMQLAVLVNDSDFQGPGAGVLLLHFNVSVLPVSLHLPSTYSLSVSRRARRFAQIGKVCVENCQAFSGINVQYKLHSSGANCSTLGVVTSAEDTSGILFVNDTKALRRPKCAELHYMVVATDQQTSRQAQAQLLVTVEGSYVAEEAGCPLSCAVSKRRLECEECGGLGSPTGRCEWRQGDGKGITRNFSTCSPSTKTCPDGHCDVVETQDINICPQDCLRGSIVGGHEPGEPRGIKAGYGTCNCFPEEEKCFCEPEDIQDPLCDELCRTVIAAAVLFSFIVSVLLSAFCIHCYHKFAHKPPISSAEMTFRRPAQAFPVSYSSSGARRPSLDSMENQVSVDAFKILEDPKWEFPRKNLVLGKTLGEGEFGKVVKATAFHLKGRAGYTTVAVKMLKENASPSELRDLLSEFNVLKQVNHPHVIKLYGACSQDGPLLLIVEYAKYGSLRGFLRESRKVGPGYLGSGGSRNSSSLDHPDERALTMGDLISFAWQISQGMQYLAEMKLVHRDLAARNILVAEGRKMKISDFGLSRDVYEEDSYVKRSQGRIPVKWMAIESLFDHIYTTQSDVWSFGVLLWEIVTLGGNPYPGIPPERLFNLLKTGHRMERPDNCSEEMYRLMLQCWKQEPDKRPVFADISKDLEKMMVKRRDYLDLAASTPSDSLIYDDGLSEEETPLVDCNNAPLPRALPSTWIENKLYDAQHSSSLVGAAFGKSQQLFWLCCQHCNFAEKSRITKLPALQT
T1 sequence (chain, as listed by the source limits assumed): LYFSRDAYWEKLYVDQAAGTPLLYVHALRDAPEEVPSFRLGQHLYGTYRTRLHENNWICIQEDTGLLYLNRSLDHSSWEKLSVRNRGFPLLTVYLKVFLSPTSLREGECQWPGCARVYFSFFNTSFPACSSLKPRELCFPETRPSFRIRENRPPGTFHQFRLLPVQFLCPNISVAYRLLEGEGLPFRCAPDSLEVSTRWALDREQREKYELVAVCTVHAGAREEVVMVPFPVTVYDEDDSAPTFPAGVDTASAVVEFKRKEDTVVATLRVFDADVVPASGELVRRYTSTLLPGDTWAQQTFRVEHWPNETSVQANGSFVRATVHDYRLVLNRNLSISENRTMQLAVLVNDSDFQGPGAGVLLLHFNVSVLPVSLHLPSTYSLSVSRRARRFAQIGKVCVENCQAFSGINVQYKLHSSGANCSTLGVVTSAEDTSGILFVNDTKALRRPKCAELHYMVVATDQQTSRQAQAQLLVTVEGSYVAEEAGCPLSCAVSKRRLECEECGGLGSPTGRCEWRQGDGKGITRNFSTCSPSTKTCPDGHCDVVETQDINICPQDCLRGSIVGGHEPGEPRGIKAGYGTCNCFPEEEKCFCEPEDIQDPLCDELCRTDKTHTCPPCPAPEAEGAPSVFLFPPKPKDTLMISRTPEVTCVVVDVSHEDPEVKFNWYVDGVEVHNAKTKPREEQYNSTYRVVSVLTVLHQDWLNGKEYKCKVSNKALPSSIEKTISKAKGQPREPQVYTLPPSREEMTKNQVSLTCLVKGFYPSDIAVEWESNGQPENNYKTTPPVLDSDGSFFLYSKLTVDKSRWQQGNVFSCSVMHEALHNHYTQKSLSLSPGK

## B1
[1]
  Response (RU): 0 RU
[2]
  Response (RU): 0.88 RU
[3]
  Response (RU): 0.226 RU
[4]
  EC50: 1.3 nM
[5]
  Response (RU): -0.515 RU
[6]
  Response (RU): 0 RU
[7]
  Response (RU): 0.184 RU
[8]
  Response (RU): 0.527 RU
[9]
  Response (RU): 0.467 RU
[10]
  pERK1/2 (Evision Unit); HEK293 cells; wtMIC-1 0.001000 nM: 1 Evision Unit
  pERK1/2 (Evision Unit); HEK293 cells; wtMIC-1 0.030483 nM: 1.02 Evision Unit
  pERK1/2 (Evision Unit); HEK293 cells; wtMIC-1 0.091449 nM: 0.969 Evision Unit
  pERK1/2 (Evision Unit); HEK293 cells; wtMIC-1 0.274348 nM: 1.13 Evision Unit
  pERK1/2 (Evision Unit); HEK293 cells; wtMIC-1 0.823045 nM: 1.4 Evision Unit
  pERK1/2 (Evision Unit); HEK293 cells; wtMIC-1 2.469136 nM: 1.69 Evision Unit
  pERK1/2 (Evision Unit); HEK293 cells; wtMIC-1 7.407407 nM: 1.7 Evision Unit
  pERK1/2 (Evision Unit); HEK293 cells; wtMIC-1 22.222220 nM: 1.73 Evision Unit
  pERK1/2 (Evision Unit); HEK293 cells; wtMIC-1 66.666670 nM: 1.74 Evision Unit
[11]
  pERK1/2 (Evision Unit); HEK293 cells; wtMIC-1 0.001000 nM: 1 Evision Unit
  pERK1/2 (Evision Unit); HEK293 cells; wtMIC-1 0.030483 nM: 1.03 Evision Unit
  pERK1/2 (Evision Unit); HEK293 cells; wtMIC-1 0.091449 nM: 1.01 Evision Unit
  pERK1/2 (Evision Unit); HEK293 cells; wtMIC-1 0.274348 nM: 1.05 Evision Unit
  pERK1/2 (Evision Unit); HEK293 cells; wtMIC-1 0.823045 nM: 1.09 Evision Unit
  pERK1/2 (Evision Unit); HEK293 cells; wtMIC-1 2.469136 nM: 1.07 Evision Unit
  pERK1/2 (Evision Unit); HEK293 cells; wtMIC-1 7.407407 nM: 1.14 Evision Unit
  pERK1/2 (Evision Unit); HEK293 cells; wtMIC-1 22.222220 nM: 1.11 Evision Unit
  pERK1/2 (Evision Unit); HEK293 cells; wtMIC-1 66.666670 nM: 1.16 Evision Unit
[12]
  pERK1/2 (Evision Unit); HEK293 cells; wtMIC-1 0.001000 nM: 1 Evision Unit
  pERK1/2 (Evision Unit); HEK293 cells; wtMIC-1 0.030483 nM: 1.07 Evision Unit
  pERK1/2 (Evision Unit); HEK293 cells; wtMIC-1 0.091449 nM: 0.988 Evision Unit
  pERK1/2 (Evision Unit); HEK293 cells; wtMIC-1 0.274348 nM: 1.07 Evision Unit
  pERK1/2 (Evision Unit); HEK293 cells; wtMIC-1 0.823045 nM: 1.17 Evision Unit
  pERK1/2 (Evision Unit); HEK293 cells; wtMIC-1 2.469136 nM: 1.24 Evision Unit
  pERK1/2 (Evision Unit); HEK293 cells; wtMIC-1 7.407407 nM: 1.3 Evision Unit
  pERK1/2 (Evision Unit); HEK293 cells; wtMIC-1 22.222220 nM: 1.26 Evision Unit
  pERK1/2 (Evision Unit); HEK293 cells; wtMIC-1 66.666670 nM: 1.32 Evision Unit
[13]
  Response (RU): -0.245 RU
[14]
  Response (RU): 0.484 RU
[15]
  Response (RU): -0.0179 RU
[16]
  EC50 of ERK1/2 phosphorylation; hGFRAL and hRET51 co-transfected PC12 cells: ~0.2 nM
[17]
  Response (RU): 0.362 RU

## B2
[1]
  Response (RU): 0 RU
[2]
  Response (RU): -0.497 RU
[3]
  Response (RU): -3.48 RU
[5]
  Response (RU): -3.85 RU
[6]
  Response (RU): 0 RU
[7]
  Response (RU): -0.0397 RU
[8]
  Response (RU): -1.11 RU
[9]
  Response (RU): -0.105 RU
[13]
  Response (RU): -2.34 RU
[14]
  Response (RU): 0.208 RU
[15]
  Response (RU): -2.04 RU
[17]
  Response (RU): -2.94 RU

## B3
[1]
  Response (RU): 0 RU
[2]
  Response (RU): 8.32 RU
[3]
  Response (RU): -1.43 RU
[5]
  Response (RU): -1.4 RU
[6]
  Response (RU): 0 RU
[7]
  Response (RU): 0.226 RU
[8]
  Response (RU): 10.7 RU
[9]
  Response (RU): 1.97 RU
[13]
  Response (RU): -1.39 RU
[14]
  Response (RU): 5.48 RU
[15]
  Response (RU): -1.48 RU
[17]
  Response (RU): -1.02 RU

## B4
[18]
  % of Binding: 21%

## B5
[18]
  % of Binding: 87%

## B6
[18]
  % of Binding: 8%
